Laboratory results as given in the supplement of paper PMC12764529.
± gives the half width of the 95% confidence interval.

Assays:
[1] = folding stability dG unfold from trypsin proteolysis; higher = more stable
In short: (§1)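 Mini-proteins designed to be under 80 residues and free of cysteine were carried in a PA-tagged cDNA display construct and digested with trypsin and with chymotrypsin. Each protease was applied at 11 threefold-diluted concentrations, alongside a no-protease condition, before sequencing. K50 came from Bayesian fitting of the sequencing counts, and unfolding free energy was obtained by comparing it with a sequence-predicted unfolded-state K50 and a shared folded-state K50, for each protease separately or for both together. Designs were retained only if their AlphaFold2 dimer inter-PAE exceeded 15.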

[2] = folding stability dG unfold (combined trypsin and chymotrypsin); higher = more stable
In short: as §1

[3] = folding stability dG unfold from chymotrypsin proteolysis; higher = more stable
In short: as §1

Sequence | folding stability dG unfold [1] [kcal/mol] | folding stability dG unfold [2] [kcal/mol] | folding stability dG unfold [3] [kcal/mol]
SAGGSAGGSAVPLTVLEEEKGEGTVVVITRGPDGKLIVTTYTKDPNSEKWTEKRTVLAPEELLSAGGSAGGS [r20_70_JUSTAS] | 1.73 ± 0.022 | 1.98 ± 0.054 | 2.08 ± 0.067
SAGGSAGGSAVTVDPSSNVVTTTDPATGTSTVTTTPPLPNGTPVLTSTTTTDAAGTPTTTTVTSAGGSAGGS [r12_952_JUSTAS] | 2.63 ± 0.12 | 2.04 ± 0.059 | 1.38 ± 0.049
SAGGSAGGSAVVSVSPDGYLRLAYYPETGELRELPPDVSVEEFLEAFPDVVVLAAPVAPTPESAGGSAGGSA [r18_53_TrMRF] | 0.961 ± 0.016 | 1.41 ± 0.048 | 1.65 ± 0.029
SAGGSAGGSDDDDAKKAMEQMKPPPIPIKIQVKIEYDPSLGWLKVEIHFFGFGLRITGTIPIDSAGGSAGGS [r20_230_TrROS] | 3.33 ± 0.16 | 4.08 ± 0.48 | 4.56 ± 0.31
SAGGSAGGSDDTAEFEGPVNVTLTLDGKPVNINAWVTRLPPGWFRIVLPDGVIELPGGNLRVGSAGGSAGGS [r12_790_TrMRF] | 0.84 ± 0.039 | 1.16 ± 0.051 | 1.31 ± 0.069
SAGGSAGGSDFPVKILEVEFHPNGSITIVIQAPDGWYIKATFHVPPNGNVKMSIELIPDPDAISAGGSAGGS [r20_23_TrROS] | 3.36 ± 0.17 | 3.85 ± 0.19 | 4 ± 0.15
SAGGSAGGSDKIKELAKKLKIVKVEKKKDGKYILLVKDEKTGKLYEIEVDLKTNKVTIKELKPSAGGSAGGS [r12_944_TrROS_Hall] | 2.81 ± 0.26 | 3.82 ± 0.39 | 4.31 ± 0.13
SAGGSAGGSDKYVVVIRVVNKETKKVTTLVFEGLKTPEELKAAVEALLPPGVVKVEIRVVKLPSAGGSAGGS [r20_29_TrROS_Hall] | 2.89 ± 0.18 | 3.18 ± 0.15 | 3.28 ± 0.12
SAGGSAGGSDLPIKIKMEPIPPGMPPGQVYRMEIEIPNGWVIRYSFYFTGGKLEFEPMEIKPVSAGGSAGGS [r12_1049_TrROS] | 2.22 ± 0.19 | 3.13 ± 0.28 | 3.58 ± 0.08
SAGGSAGGSDPEFELVRVEVFPFPTATLVRAVARFPPTDEYVEVELVHFPVPDRVLLRVRLLPSAGGSAGGS [r12_14_TrMRF] | 3.07 ± 0.064 | 3.58 ± 0.097 | 3.93 ± 0.071
SAGGSAGGSDPSATISFSFPLPDGSTININITITDEGSGPRIEIDITVTDANNNTAPAKFTIDSAGGSAGGS [r12_33_TrMRF] | 1.58 ± 0.11 | 1.65 ± 0.11 | 1.4 ± 0.14
SAGGSAGGSDPTAPVITTVPFPSGAVLTITTYPDSVTITYPSPGTTYTVPASAPIPITYQPALSAGGSAGGS [r12_227_JUSTAS] | 0.674 ± 0.015 | 0.488 ± 0.067 | 0.0869 ± 0.12
SAGGSAGGSDPTPVVVEFPFSSEEEAEKKAKEAAEKLKAEGVDIKEVKIEYDPEKGTVTLTLGSAGGSAGGS [r20_155_JUSTAS] | 1.36 ± 0.043 | 1.21 ± 0.11 | 1.07 ± 0.062
SAGGSAGGSDVEDIIKKLKIPPGYRMRFPDGKSHKFNNLDDIRNLAEMGMPPDNIDKIQIQPYSAGGSAGGS [r12_430_TrROS] | -0.152 ± 0.22 | 0.0517 ± 0.15 | 0.09 ± 0.28
SAGGSAGGSEDKYIIRVEVLLPNKKRTYVLEEPEKGIEAFKKRLEKEYPDEPIVEVRIEVLPASAGGSAGGS [r12_429_TrMRF] | 0.874 ± 0.032 | 1.19 ± 0.1 | 1.37 ± 0.11
SAGGSAGGSEEKKIKIKIKIERDPENPNTYRITIEDEETGERYELEITVPPPKPKVFFFPKKKSAGGSAGGS [r12_985_TrROS_Hall] | 2.24 ± 0.023 | 2.18 ± 0.17 | 2.19 ± 0.12
SAGGSAGGSEKIIEELKKKFPGLKIDKIEITVKKKKITIELKPPPKVYLTKEELEKKGYKIEKSAGGSAGGS [r12_3_TrROS_Hall] | 1.33 ± 0.041 | 0.87 ± 0.22 | 0.449 ± 0.33
SAGGSAGGSEKKPPEVTVVIKLPKGTSLEELLAALPPGAKAEIVEVVKVDEEKNEVYVKIRLTSAGGSAGGS [r12_469_TrROS_Hall] | 2.26 ± 0.11 | 2.61 ± 0.095 | 2.71 ± 0.04
SAGGSAGGSEKPPVKTITLVLKVDDAEEAAKALAEELGVEITRIEVTRDENGKVYVRITIRLPSAGGSAGGS [r12_359_TrROS_Hall] | 3.6 ± 0.1 | 3.9 ± 0.14 | 3.99 ± 0.099
SAGGSAGGSEKVEIEREFKLPDPNGKPFRFTVEIEVEPRNDGLKIEITEVEGPWMRDAIKKLLSAGGSAGGS [r12_743_TrROS] | 0.696 ± 0.14 | 0.907 ± 0.2 | 0.922 ± 0.24
SAGGSAGGSEKVIVVPSEEALKALEDAGIEVKKIEVFTETVTYYYPPGFPPVTETRTYLLVEVSAGGSAGGS [r12_78_TrROS_Hall] | 1.45 ± 0.056 | 1.96 ± 0.083 | 2.26 ± 0.072
